± gives the uncertainty stated by the source.
B1: Zinc finger homeobox protein 4, residues 2086 to 2141; numbered along this chain, Q86UP3 (parent)
chain: RPRTRITDDQLKILRAYFDINNSPSEEQIQEMAEKSGLSQKVIKHWFRNTLFKERQ
B2: REST corepressor 3, residues 87 to 134; numbered along this chain, Q9P2K3 (parent)
chain: DEWTVEDKVLFEQAFSFHGKSFHRIQQMLPDKTIASLVKYYYSWKKTR

Variants of: B1
Assay: abundance fitness (aPCA) (normalised: wild type 0, dead -1); higher = more abundant; growth selection in yeast, the domain comes from the species named
Details: Homo sapiens

Abundance fitness of substitutions, site by site:
F52: Y -0.02 ± 0.17; G 0.035 ± 0.17; Q 0.006 ± 0.24; H 0.018 ± 0.15; A -0.029 ± 0.15; M -0.131 ± 0.19; K 0.068 ± 0.19; R 0.184 ± 0.13; I 0.014 ± 0.14; C 0.13 ± 0.16; N 0.134 ± 0.15; D -0.085 ± 0.24; T 0.052 ± 0.11; W -0.174 ± 0.31; L -0.005 ± 0.094; S -0.067 ± 0.12; V 0.062 ± 0.17
K53: N -0.023 ± 0.15; H 0.023 ± 0.13; C -0.201 ± 0.12; L 0.06 ± 0.084; W -0.131 ± 0.093; Q -0.072 ± 0.12; T -0.042 ± 0.12; V -0.157 ± 0.091; D -0.041 ± 0.16; S 0.016 ± 0.084; I 0.141 ± 0.17; G -0.071 ± 0.074; F -0.284 ± 0.18; M -0.114 ± 0.13; Y -0.064 ± 0.17; P -0.285 ± 0.12
H45: K 0.038 ± 0.092; T 0 ± 0.066; R 0.08 ± 0.066; M -0.059 ± 0.089; N -0.061 ± 0.077; Y -0.034 ± 0.083; G -0.029 ± 0.089; F -0.082 ± 0.085; D 0.006 ± 0.087; I -0.114 ± 0.088; E 0.09 ± 0.098; W 0.023 ± 0.1; S -0.004 ± 0.064; A -0.018 ± 0.067; L -0.042 ± 0.062; C -0.181 ± 0.094; Q -0.006 ± 0.081; V -0.059 ± 0.073; P -0.207 ± 0.067
K44: C -0.204 ± 0.13; F -0.023 ± 0.11; N -0.042 ± 0.11; S -0.069 ± 0.087; E -0.031 ± 0.14; W -0.312 ± 0.23; G 0.001 ± 0.1; V -0.186 ± 0.1; T -0.017 ± 0.11; P -0.716 ± 0.1; I -0.25 ± 0.13; D 0.068 ± 0.11; M -0.098 ± 0.14; Y 0.049 ± 0.14; H -0.042 ± 0.11; L -0.204 ± 0.094; Q -0.362 ± 0.13; A 0.038 ± 0.098; R -0.01 ± 0.12
L51: F -0.257 ± 0.17; Q 0.126 ± 0.12; R -0.092 ± 0.089; T -0.065 ± 0.12; W -0.163 ± 0.1; G -0.134 ± 0.078; V 0.04 ± 0.09; H -0.071 ± 0.2; K -0.043 ± 0.15; I -0.237 ± 0.22; D -0.047 ± 0.18; A 0.007 ± 0.098; M 0.005 ± 0.13; S -0.1 ± 0.1; E -0.127 ± 0.11; Y -0.098 ± 0.18; P -0.125 ± 0.12; N -0.12 ± 0.13
N49: T 0.025 ± 0.089; P -0.383 ± 0.11; H 0.141 ± 0.1; L -0.172 ± 0.07; Y -0.169 ± 0.13; R -0.009 ± 0.077; K 0.123 ± 0.11; W -0.12 ± 0.1; S -0.022 ± 0.078; D 0.085 ± 0.1; I 0.019 ± 0.12; Q -0.155 ± 0.11; E 0.079 ± 0.091; A -0.023 ± 0.075
R48: T 0.1 ± 0.1; W -0.185 ± 0.084; E -0.153 ± 0.13; P -0.444 ± 0.096; V -0.111 ± 0.079; S -0.112 ± 0.077; D -0.09 ± 0.12; G -0.042 ± 0.069; N 0.125 ± 0.13; A -0.047 ± 0.077; L -0.04 ± 0.077; C -0.056 ± 0.092; Y -0.289 ± 0.14; F -0.142 ± 0.1; I -0.164 ± 0.12; H 0.049 ± 0.11; Q 0.056 ± 0.11; M -0.095 ± 0.14
T50: C -0.213 ± 0.11; G -0.079 ± 0.074; R -0.032 ± 0.065; A -0.013 ± 0.08; W -0.109 ± 0.093; M 0.065 ± 0.1; K -0.016 ± 0.099; Y -0.288 ± 0.13; Q 0.035 ± 0.11; N 0.007 ± 0.14; E 0.051 ± 0.12; I -0.119 ± 0.1; L -0.061 ± 0.081; S -0.053 ± 0.078; F -0.182 ± 0.16; D 0.102 ± 0.15
F47: I -0.416 ± 0.2; W -0.197 ± 0.093; N -0.398 ± 0.13; P -0.951 ± 0.11; H -0.146 ± 0.15; S -0.287 ± 0.079; G -0.753 ± 0.084; R -0.506 ± 0.072; Q -0.342 ± 0.1; D -0.708 ± 0.12; T -0.234 ± 0.093; M -0.097 ± 0.12; L -0.149 ± 0.077; Y -0.096 ± 0.15; C -0.134 ± 0.11; K -0.558 ± 0.12; V -0.041 ± 0.079; E -0.517 ± 0.098
E54: M -0.375 ± 0.13; F -0.231 ± 0.12; G -0.17 ± 0.07; S -0.047 ± 0.08; I -0.403 ± 0.2; N -0.149 ± 0.15; L -0.035 ± 0.074; T -0.189 ± 0.091; A -0.082 ± 0.073; Q -0.206 ± 0.1; V -0.057 ± 0.076; P -0.182 ± 0.11; R -0.1 ± 0.066; K -0.169 ± 0.13; D -0.102 ± 0.11; H -0.238 ± 0.13; W -0.215 ± 0.095; C -0.205 ± 0.093
Q56: M -0.12 ± 0.18; T -0.07 ± 0.17; E -0.77 ± 0.38; N -0.083 ± 0.18; R -0.024 ± 0.12; V -0.568 ± 0.38; W -0.492 ± 0.21; L -0.214 ± 0.18; A -0.646 ± 0.44; K 0.295 ± 0.33; C -0.802 ± 0.28; S -0.502 ± 0.22; G -0.439 ± 0.17; H -0.363 ± 0.24
R55: M -0.198 ± 0.12; H 0.256 ± 0.49; F -0.125 ± 0.26; E -0.059 ± 0.099; Y -0.431 ± 0.16; D -0.163 ± 0.14; I -0.632 ± 0.2; P -0.118 ± 0.18; G -0.038 ± 0.067; S -0.011 ± 0.09; L -0.091 ± 0.087; Q -0.028 ± 0.12; W -0.215 ± 0.08; V -0.204 ± 0.078; A -0.025 ± 0.088; T -0.158 ± 0.12; N -0.255 ± 0.2; C 0.016 ± 0.12
W46: P -0.698 ± 0.11; E -0.141 ± 0.095; M -0.376 ± 0.096; A -0.313 ± 0.08; F -0.237 ± 0.11; K -0.737 ± 0.12; L -0.239 ± 0.069; G -0.655 ± 0.072; V -0.221 ± 0.074; Q -0.483 ± 0.1; R -0.516 ± 0.073; I -0.331 ± 0.18; D -0.297 ± 0.15; S -0.406 ± 0.075; Y 0.001 ± 0.16; T -0.203 ± 0.091; N -0.762 ± 0.23
I43: Y -0.8 ± 0.14

Variants of: B2
Assay: as above
Details: Homo sapiens

Abundance fitness: each site, then its substitutions
L10: M 0.745 ± 0.12; R -0.213 ± 0.12; V -0.051 ± 0.087; A -0.317 ± 0.14; S -0.763 ± 0.14; T -0.723 ± 0.44; I -0.117 ± 0.39; K 0.546 ± 0.15
E2: C -0.116 ± 0.33; A -0.797 ± 0.33; Y -0.208 ± 0.32; K 0.3 ± 0.17; L -0.593 ± 0.3; V -0.859 ± 0.3; S -0.441 ± 0.3; N 0.294 ± 0.24; R -0.107 ± 0.16; G 0.037 ± 0.11; Q -0.486 ± 0.47; H -0.265 ± 0.45; T -0.302 ± 0.26
K8: Q -0.457 ± 0.38; V -0.625 ± 0.21; G -0.673 ± 0.12; L -0.779 ± 0.38; H -0.594 ± 0.32; S -0.822 ± 0.36; R -0.434 ± 0.13; P -0.763 ± 0.32; T -0.542 ± 0.32; I -0.388 ± 0.5; M -0.035 ± 0.13
W3: R -1.02 ± 0.32; G -0.912 ± 0.33; C -0.776 ± 0.32; S -0.651 ± 0.38; F -0.264 ± 0.12; I -0.465 ± 0.46; L -0.858 ± 0.4; V -0.677 ± 0.23; M -0.629 ± 0.39
V9: A -0.216 ± 0.14; F -0.531 ± 0.38; W -0.18 ± 0.24; H -0.237 ± 0.2; I 0.032 ± 0.27; S -0.143 ± 0.15; E -0.302 ± 0.14; D -0.258 ± 0.2; T -0.024 ± 0.23; M -0.592 ± 0.36; R -0.167 ± 0.12; P -0.828 ± 0.24; K -0.201 ± 0.18; L -0.28 ± 0.19; Y -0.581 ± 0.3; N 0.166 ± 0.22; G -0.17 ± 0.13
D7: S -0.611 ± 0.17; Y -0.686 ± 0.45; N -0.821 ± 0.23; A -0.811 ± 0.34; V -0.687 ± 0.21; E -0.617 ± 0.34; P -0.411 ± 0.4; W -0.762 ± 0.36; L -0.796 ± 0.21; G -0.571 ± 0.15; Q -0.156 ± 0.22; T -0.708 ± 0.43
T4: P -0.83 ± 0.48; V -0.756 ± 0.45; G -0.84 ± 0.28; L -0.727 ± 0.15; S -0.198 ± 0.14; R -0.634 ± 0.25; D -0.53 ± 0.38; N -0.257 ± 0.3
F11: D -0.873 ± 0.44; G -0.768 ± 0.23; C -0.265 ± 0.26; L -1.14 ± 0.36; A -0.715 ± 0.19; E -0.769 ± 0.36
D1: G 0.138 ± 0.13; E -0.195 ± 0.25
V5: K 0.208 ± 0.13; R -0.163 ± 0.11; A -0.137 ± 0.11; L -0.458 ± 0.18; C -0.478 ± 0.37; G -0.658 ± 0.14; M -0.612 ± 0.31; F -0.222 ± 0.32; Q -0.154 ± 0.15; P -0.393 ± 0.23; T -0.436 ± 0.27; E 0.388 ± 0.11; Y 0.218 ± 0.12; I -0.316 ± 0.18; D -0.104 ± 0.17; S -0.3 ± 0.13
E6: T -0.323 ± 0.2; I -0.58 ± 0.46; Q 0.293 ± 0.48; A -0.388 ± 0.15; R -0.273 ± 0.11; L -0.614 ± 0.2; D -0.466 ± 0.16; V -0.777 ± 0.33; F -0.542 ± 0.43
